Data set [1] has as its target T1, thrombin (human (plasma), UniProt P00734;P00734 328-363;364-622). The data set is described as follows: graphene FET, real-time drain current.
Data set [2] concerns the target T1, thrombin. The data set is described as follows: graphene FET, Dirac voltage shift.
Data set [3] has as its target T1, thrombin. Put plainly: graphene FET, Dirac voltage shift. This is another data set of the same source.

Consider CCATCTCCACTTGGTTGGTGTGGTTGG (structured_DNA, 5' NH2-(CH2)6, amide-coupled to PBASE on graphene) [anti-thrombin DNA aptamer], for which the Kd in data set [1] came to 0.732 nM; in data set [2], 0.376 nM.
As for ATCAGGGCTAAAGAGTGCAGAGTTACTTAG (ssDNA, 5' NH2-(CH2)6, amide-coupled to PBASE on graphene) [anti-lysozyme DNA aptamer], the binding result in data set [3] is “no binding”.

Usually Kd stands for the concentration at which binding is half-saturated.

The values are drawn from PMC7478360.
